According to PMC4636328, “Two Polyhydroxyalkanoate Synthases from Distinct Classes from the Aromatic Degrader Cupriavidus pinatubonensis JMP134 Exhibit the Same Substrate Preference” (PLoS ONE, 2015):

B1: PhaC1 (Cupriavidus pinatubonensis JMP134) (protein)
chain: MATGKGAAASSTEGKSQPFKFPPGPLDPATWLEWSRQWQGPEGNGGTVPGGFPGFEAFAASPLAGVKIDPAQLAEIQQRYMRDFTELWRGLAGGDTESAGKLHDRRFASEAWHKNAPYRYTAAFYLLNARALTELADAVEADPKTRQRIRFAVSQWVDAMSPANFLATNPDAQNRLIESRGESLRAGMRNMLEDLTRGKISQTDETAFEVGRNMAVTEGAVVFENEFFQLLQYKPLTDKVYTRPLLLVPPCINKFYILDLQPEGSLVRYAVEQGHTVFLVSWRNPDASMAGCTWDDYIENAAIRAIEVVRDISGQDKINTLGFCVGGTIISTALAVLAARGEHPVASLTLLTTLLDFTDTGILDVFVDEPHVQLREATLGGASGGLLRGVELANTFSFLRPNDLVWNYVVDNYLKGNTPVPFDLLFWNGDATNLPGPWYCWYLRHTYLQNELKEPGKLTVCNEPVDLGAINVPTYIYGSREDHIVPWTAAYASTALLKNDLRFVLGASGHIAGVINPPAKKKRSHWTNDALPESAQDWLAGAEEHHGSWWPDWMTWLGKQAGAKRAAPTEYGSKRYAAIEPAPGRYVKAKA
notes: full length (591 residues), C-terminal His6 tag, pET28a, E. coli BL21(DE3), Ni-NTA purified, about 65 kDa
B2: PhaC2 (Cupriavidus pinatubonensis JMP134) (protein)
chain: MTTAVGTRTLAKTTKKAKKPAASAVAPEAIVDSAPAMTGPNPFVGLRPEDMVSTAQQIGAQCVQEPTLLLQQQTKLAQDLFAVVDGSAPPPCTRDRRFGDPAWQDNPVYRMALQGYQAWRDALTGFVTGSVMDGRSKERAQYFTDLLIDAVAPTNTLLGNPAALRKTFESGGLNLVSGLVNLLTDTLTNQGMPSQVDKSAFRIGKDLAATPGAVVFRNDVLELIQYTPTTANVHARPQLIVPPQVNKFYVFDLSQGKSMVEYLVRNEMQVFMVSWRNPTTLHRDWNLDTYVGALIEAIHAIRDITGSPDVNLHGACSGAMTMSALMGYCAARGEKLVNAATLMVSVFGLDSQSQLGLFATPEAIDAARQGSQARGVLDGGELGRVFAWMRPNDLVWNYWVNNYLLGKAPPAFDILYWNNDTTRLPAGLHGQLLDMLTLNQLSTPGALRVLGQPIDLSAVDCDKYVLAGMTDHITPWKGVYRSVRAFGGKTEFVLSSSGHVQSLINPPGNAKAKFFLNDAQMADPEAWLEGATVTPSSWWEHWSEWLKTRSGPLNAAPSRLGSDRHAPCADAPGRYVTEA
notes: full length (579 residues), C-terminal His6 tag, pET28a, E. coli BL21(DE3), Ni-NTA purified, about 65 kDa
B3: PhaC1Pa (Pseudomonas aeruginosa PAO1) (protein)
chain: MSQKNNNELPKQAAENTLNLNPVIGIRGKDLLTSARMVLLQAVRQPLHSARHVAHFSLELKNVLLGQSELRPGDDDRRFSDPAWSQNPLYKRYMQTYLAWRKELHSWISHSDLSPQDISRGQFVINLLTEAMSPTNSLSNPAAVKRFFETGGKSLLDGLGHLAKDLVNNGGMPSQVDMDAFEVGKNLATTEGAVVFRNDVLELIQYRPITESVHERPLLVVPPQINKFYVFDLSPDKSLARFCLRNGVQTFIVSWRNPTKSQREWGLTTYIEALKEAIEVVLSITGSKDLNLLGACSGGITTATLVGHYVASGEKKVNAFTQLVSVLDFELNTQVALFADEKTLEAAKRRSYQSGVLEGKDMAKVFAWMRPNDLIWNYWVNNYLLGNQPPAFDILYWNNDTTRLPAALHGEFVELFKSNPLNRPGALEVSGTPIDLKQVTCDFYCVAGLNDHITPWESCYKSARLLGGKCEFILSNSGHIQSILNPPGNPKARFMTNPELPAEPKAWLEQAGKHADSWWLHWQQWLAERSGKTRKAPASLGNKTYPAGEAAPGTYVHER
notes: full length, C-terminal His6 tag, pET28a, E. coli BL21(DE3), Ni-NTA purified

Legend:
purified protein [1] = substrate: C[C@@H](O)CC(=O)SCCNC(=O)CCNC(=O)[C@H](O)C(C)(C)COP(=O)(O)OP(=O)(O)OC[C@H]1O[C@@H](n2cnc3c(N)ncnc32)[C@H](O)[C@@H]1OP(=O)(O)O; test: purified protein; assay type: biochemical, Cupriavidus pinatubonensis; details: 50 mM PBS, pH 7.5, 20 mM MgCl2, 0.5 mM DTNB, R/S substrate mixture, R isomer counted
purified protein [2] = substrate: CCCCC[C@@H](O)CC(=O)SCCNC(=O)CCNC(=O)[C@H](O)C(C)(C)COP(=O)(O)OP(=O)(O)OC[C@H]1O[C@@H](n2cnc3c(N)ncnc32)[C@H](O)[C@@H]1OP(=O)(O)O; test: purified protein; assay type: biochemical, Pseudomonas aeruginosa; details: 50 mM PBS, pH 7.5, 20 mM MgCl2, 0.5 mM DTNB, R/S substrate mixture, R isomer counted

Protein | Km (purified protein [1]) | Vmax (purified protein [1]) | kcat (purified protein [1]) | kcat/Km (purified protein [1]) | Km (purified protein [2]) | Vmax (purified protein [2]) | kcat (purified protein [2]) | kcat/Km (purified protein [2])
B1 | 45.46 ± 6.02 µM | 38.3 µM/min | 0.664 ± 0.0352 s⁻¹ | 14700 ± 3170 M⁻¹ s⁻¹ |  |  |  | 
B2 | 115.93 ± 9.15 µM | 1.74 µM/min | 0.0625 ± 0.000333 s⁻¹ | 533 ± 33.3 M⁻¹ s⁻¹ |  |  |  | 
B3 |  |  |  |  | 67.28 ± 12.86 µM | 39 µM/min | 0.94 ± 0.0883 s⁻¹ | 13800 ± 4170 M⁻¹ s⁻¹
